The supplement of paper PMC9112550, “Optimization of the antimicrobial peptide Bac7 by deep mutational scanning” (BMC Biology, 2022)

system: Escherichia coli TOP10; assay: shrunken log2 fold change of peptide-encoding DNA abundance (4.5 h post-induction vs induction); higher = less antimicrobial activity (less host growth inhibition); settings: time post-induction: 4.5 h; library: site-saturation at positions 5, 18, 19, 20
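Note: peptides expressed intracellularly from a pBAD plasmid library in pooled LB shake-flask culture, induced with 0.3% L-arabinose, DNA abundance read by NGS, three biological replicates, DESeq2 with apeglm shrinkage.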

Sequence | shrunken log2 fold change
RRIRGRPPRLPRPRPRPAPEPRP | 1.34
RRIRHRPPRLPRPRPRPQRAPRP | 0.205
RRIRSRPPRLPRPRPRPLFSPRP | -0.0902
RRIRVRPPRLPRPRPRPRENPRP | 0.473
RRIRMRPPRLPRPRPRPFATPRP | 0.609
RRIRNRPPRLPRPRPRPINSPRP | -0.208
RRIRFRPPRLPRPRPRPVYKPRP | -0.295
RRIRPRPPRLPRPRPRPFQSPRP | 0.0035
RRIRMRPPRLPRPRPRPHHAPRP | 0.0324
RRIRTRPPRLPRPRPRPGMDPRP | 0.0475
RRIRCRPPRLPRPRPRPSQFPRP | -0.787
RRIRYRPPRLPRPRPRPSHHPRP | -1.2
RRIRPRPPRLPRPRPRPLKDPRP | -0.115
RRIRFRPPRLPRPRPRPRPLPRP | 0.406
RRIRYRPPRLPRPRPRPGRLPRP | -0.0505
RRIRDRPPRLPRPRPRPVPHPRP | 0.012
RRIRIRPPRLPRPRPRPFFNPRP | -0.501
RRIRMRPPRLPRPRPRPTEFPRP | 0.0756
RRIRPRPPRLPRPRPRPFFIPRP | -0.249
RRIRVRPPRLPRPRPRPDYMPRP | 0.0631
RRIRERPPRLPRPRPRPQSDPRP | -0.134
RRIRDRPPRLPRPRPRPWVWPRP | 0.702
RRIRYRPPRLPRPRPRPPYHPRP | -0.82
RRIRWRPPRLPRPRPRPLWVPRP | 0.0766
RRIRVRPPRLPRPRPRPPERPRP | 0.257

Sequence | shrunken log2 fold change
RRIRERPPRLPRPRPRPFYCPRP | 0.0826
RRIRDRPPRLPRPRPRPQGTPRP | 0.165
RRIRYRPPRLPRPRPRPQHLPRP | -0.262
RRIRARPPRLPRPRPRPMEVPRP | -0.0122
RRIRSRPPRLPRPRPRPSKSPRP | -0.361
RRIRDRPPRLPRPRPRPNMDPRP | -0.491
RRIRRRPPRLPRPRPRPKEEPRP | -0.00663
RRIRARPPRLPRPRPRPWCKPRP | 0.102
RRIRQRPPRLPRPRPRPTPCPRP | -0.138
RRIRKRPPRLPRPRPRPDAEPRP | 1.59
RRIRARPPRLPRPRPRPQSNPRP | -0.142
RRIRARPPRLPRPRPRPGKWPRP | 0.19
RRIRSRPPRLPRPRPRPRRSPRP | 0.181
RRIRHRPPRLPRPRPRPVSNPRP | -0.222
RRIRTRPPRLPRPRPRPYDGPRP | -0.0303
RRIRLRPPRLPRPRPRPTKNPRP | 0.00698
RRIRVRPPRLPRPRPRPHCRPRP | 0.199
RRIRWRPPRLPRPRPRPDSEPRP | 1.48
RRIRERPPRLPRPRPRPEMCPRP | -0.0143
RRIRCRPPRLPRPRPRPRILPRP | -0.567
RRIRERPPRLPRPRPRPREQPRP | -0.0138
RRIRKRPPRLPRPRPRPKGPPRP | 0.828
RRIRQRPPRLPRPRPRPDTSPRP | 0.00601
RRIRYRPPRLPRPRPRPNCDPRP | -0.504
RRIRDRPPRLPRPRPRPDSSPRP | 0.109

Sequence | shrunken log2 fold change
RRIRMRPPRLPRPRPRPRDYPRP | -0.164
RRIRQRPPRLPRPRPRPSNMPRP | -0.459
RRIRMRPPRLPRPRPRPYCYPRP | -0.13
RRIRARPPRLPRPRPRPPMAPRP | 0.484
RRIRLRPPRLPRPRPRPCYNPRP | -0.206
RRIRFRPPRLPRPRPRPTVMPRP | -0.0812
RRIRERPPRLPRPRPRPFPWPRP | -0.0723
RRIRDRPPRLPRPRPRPRAMPRP | -0.0837
RRIRSRPPRLPRPRPRPSGQPRP | -0.0423
RRIRQRPPRLPRPRPRPYNQPRP | -0.536
RRIRDRPPRLPRPRPRPCRVPRP | 0.0479
RRIRDRPPRLPRPRPRPCADPRP | 0.167
RRIRGRPPRLPRPRPRPIRLPRP | -0.0112
RRIRDRPPRLPRPRPRPKWTPRP | 0.0796
RRIRVRPPRLPRPRPRPWYAPRP | -0.299
RRIRRRPPRLPRPRPRPVLLPRP | 0.103
RRIRLRPPRLPRPRPRPSQTPRP | -0.217
RRIRQRPPRLPRPRPRPLSCPRP | -0.242
RRIRNRPPRLPRPRPRPMQKPRP | 0.0161
RRIRHRPPRLPRPRPRPYMWPRP | -1.86
RRIRNRPPRLPRPRPRPQDAPRP | -0.131
RRIRMRPPRLPRPRPRPNAIPRP | 0.0397
RRIRQRPPRLPRPRPRPYRIPRP | -0.111
RRIRARPPRLPRPRPRPKDEPRP | 0.687
RRIRHRPPRLPRPRPRPVMAPRP | -0.27

Sequence | shrunken log2 fold change
RRIRKRPPRLPRPRPRPVTEPRP | 0.42
RRIRMRPPRLPRPRPRPTAFPRP | 0.206
RRIRLRPPRLPRPRPRPIRKPRP | -0.14
RRIRNRPPRLPRPRPRPIEFPRP | -0.235
RRIRERPPRLPRPRPRPNVMPRP | -0.403
RRIRMRPPRLPRPRPRPTWFPRP | 0.448
RRIRQRPPRLPRPRPRPIDMPRP | 0.00643
RRIRVRPPRLPRPRPRPPACPRP | 0.692
RRIRDRPPRLPRPRPRPPHEPRP | 0.00485
RRIRMRPPRLPRPRPRPWCHPRP | 0.0355
RRIRKRPPRLPRPRPRPKVTPRP | 0.0261
RRIRYRPPRLPRPRPRPDWDPRP | -0.543
RRIRCRPPRLPRPRPRPQVCPRP | -0.203
RRIRRRPPRLPRPRPRPWRSPRP | 0.181
RRIRWRPPRLPRPRPRPHAKPRP | 0.202
RRIRWRPPRLPRPRPRPGYKPRP | -0.255
RRIRRRPPRLPRPRPRPSMNPRP | -0.467
RRIRVRPPRLPRPRPRPNWLPRP | -0.105
RRIRFRPPRLPRPRPRPLAMPRP | -0.0206
RRIRSRPPRLPRPRPRPPIMPRP | -0.0485
RRIRNRPPRLPRPRPRPWAQPRP | -0.0776
RRIRYRPPRLPRPRPRPCFMPRP | -0.675
RRIRLRPPRLPRPRPRPSGSPRP | 0.182
RRIRARPPRLPRPRPRPIRDPRP | 0.114
RRIRSRPPRLPRPRPRPALWPRP | 0.825

Sequence | shrunken log2 fold change
RRIRLRPPRLPRPRPRPKHNPRP | -0.384
RRIRERPPRLPRPRPRPRMYPRP | -0.723
RRIRYRPPRLPRPRPRPGDPPRP | -0.223
RRIRMRPPRLPRPRPRPYSVPRP | 0.0409
RRIRIRPPRLPRPRPRPTEDPRP | 0.267
RRIRDRPPRLPRPRPRPLIAPRP | 0.468
RRIRPRPPRLPRPRPRPQPMPRP | 0.225
RRIRRRPPRLPRPRPRPLHLPRP | -0.318
RRIRSRPPRLPRPRPRPMLWPRP | 0.619
RRIRHRPPRLPRPRPRPNDTPRP | -0.933
RRIRQRPPRLPRPRPRPLKSPRP | 0.138
RRIRRRPPRLPRPRPRPCAQPRP | -0.0794
RRIRVRPPRLPRPRPRPGGIPRP | 0.143
RRIRIRPPRLPRPRPRPNSLPRP | -0.457
RRIRRRPPRLPRPRPRPWHWPRP | 0.183
RRIRYRPPRLPRPRPRPKMRPRP | 0.198
RRIRIRPPRLPRPRPRPQDSPRP | -0.269
RRIRGRPPRLPRPRPRPMMKPRP | 0.591
RRIRMRPPRLPRPRPRPPDGPRP | 1.41
RRIRYRPPRLPRPRPRPSSEPRP | 0.0163
RRIRKRPPRLPRPRPRPSGYPRP | -0.0136
RRIRARPPRLPRPRPRPAEIPRP | 0.233
RRIRVRPPRLPRPRPRPELNPRP | -0.0839
RRIRNRPPRLPRPRPRPVHIPRP | -0.15
RRIRNRPPRLPRPRPRPRPRPRP | 0.586

Sequence | shrunken log2 fold change
RRIRIRPPRLPRPRPRPCPDPRP | -0.127
RRIRIRPPRLPRPRPRPMIRPRP | -0.511
RRIRKRPPRLPRPRPRPAHAPRP | 1.11
RRIRRRPPRLPRPRPRPAWAPRP | 0.791
RRIRGRPPRLPRPRPRPKFSPRP | 0.392
RRIRQRPPRLPRPRPRPHCPPRP | -0.0268
RRIRWRPPRLPRPRPRPYCVPRP | -0.521
RRIRQRPPRLPRPRPRPFNTPRP | -0.29
RRIRYRPPRLPRPRPRPFAHPRP | -0.00804
RRIRRRPPRLPRPRPRPRPVPRP | 0.882
RRIRIRPPRLPRPRPRPVPVPRP | 0.0789
RRIRSRPPRLPRPRPRPHSWPRP | 0.122
RRIRTRPPRLPRPRPRPVEIPRP | -0.2
RRIRTRPPRLPRPRPRPCCLPRP | 0.096
RRIRLRPPRLPRPRPRPTAKPRP | 0.134
RRIRNRPPRLPRPRPRPIFHPRP | -0.358
RRIRRRPPRLPRPRPRPGDWPRP | 0.465
RRIRMRPPRLPRPRPRPEWLPRP | 0.056
RRIRGRPPRLPRPRPRPHKYPRP | -0.216
RRIRTRPPRLPRPRPRPHHQPRP | -0.272
RRIRMRPPRLPRPRPRPPMRPRP | 1.62
RRIRGRPPRLPRPRPRPNAEPRP | 2.89
RRIRKRPPRLPRPRPRPGRFPRP | 0.227
RRIRYRPPRLPRPRPRPEYFPRP | -0.744
RRIRPRPPRLPRPRPRPPMAPRP | 0.338
